B1: Zinc finger protein 473 (Homo sapiens), Q8WTR7 (parent)
chain: MAEEFVTLKDVGMDFTLGDWEQLGLEQGDTFWDTALDNCQDLFLLDPPRPNLTSHPDGSEDLEPLAGGSPEATSPDVTETKNSPLMEDFFEEGFSQEIIEMLSKDGFWNSNFGEACIEDTWLDSLLGDPESLLRSDIATNGESPTECKSHELKRGLSPVSTVSTGEDSMVHNVSEKTLTPAKSKEYRGEFFSYSDHSQQDSVQEGEKPYQCSECGKSFSGSYRLTQHWITHTREKPTVHQECEQGFDRNASLSVYPKTHTGYKFYVCNEYGTTFSQSTYLWHQKTHTGEKPCKSQDSDHPPSHDTQPGEHQKTHTDSKSYNCNECGKAFTRIFHLTRHQKIHTRKRYECSKCQATFNLRKHLIQHQKTHAAKTTSECQECGKIFRHSSLLIEHQALHAGEEPYKCNERGKSFRHNSTLKIHQRVHSGEKPYKCSECGKAFHRHTHLNEHRRIHTGYRPHKCQECVRSFSRPSHLMRHQAIHTAEKPYSCAECKETFSDNNRLVQHQKMHTVKTPYECQECGERFICGSTLKCHESVHAREKQGFFVSGKILDQNPEQKEKCFKCNKCEKTFSCSKYLTQHERIHTRGVKPFECDQCGKAFGQSTRLIHHQRIHSRVRLYKWGEQGKAISSASLIKLQSFHTKEHPFKCNECGKTFSHSAHLSKHQLIHAGENPFKCSKCDRVFTQRNYLVQHERTHARKKPLVCNECGKTFRQSSCLSKHQRIHSGEKPYVCDYCGKAFGLSAELVRHQRIHTGEKPYVCQECGKAFTQSSCLSIHRRVHTGEKPYRCGECGKAFAQKANLTQHQRIHTGEKPYSCNVCGKAFVLSAHLNQHLRVHTQETLYQCQRCQKAFRCHSSLSRHQRVHNKQQYCL

Variants of: B1
Settings: with gpt2l_human GPATCH2L

Variant | effect of a mutation on the interaction
S59G | with no effect
R605Q | with no effect
R223C | with no effect

Variants of: B1
Settings: with ntf2_human NUTF2, P61970
Sequence of ntf2_human NUTF2, P61970 (P61970 whole entry): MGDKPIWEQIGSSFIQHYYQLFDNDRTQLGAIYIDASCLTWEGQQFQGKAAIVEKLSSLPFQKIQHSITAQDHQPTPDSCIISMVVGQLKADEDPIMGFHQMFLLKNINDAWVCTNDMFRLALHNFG

Variant | effect of a mutation on the interaction
S59G | with no effect

Variants of: B1
Settings: with tri41_human TRIM41, Q8WV44

Variant | effect of a mutation on the interaction
S59G | with no effect
T164M | with no effect
R223C | with no effect

Variants of: B1
Settings: with zn792_human ZNF792, Q3KQV3
Sequence of zn792_human ZNF792, Q3KQV3 (Q3KQV3 whole entry): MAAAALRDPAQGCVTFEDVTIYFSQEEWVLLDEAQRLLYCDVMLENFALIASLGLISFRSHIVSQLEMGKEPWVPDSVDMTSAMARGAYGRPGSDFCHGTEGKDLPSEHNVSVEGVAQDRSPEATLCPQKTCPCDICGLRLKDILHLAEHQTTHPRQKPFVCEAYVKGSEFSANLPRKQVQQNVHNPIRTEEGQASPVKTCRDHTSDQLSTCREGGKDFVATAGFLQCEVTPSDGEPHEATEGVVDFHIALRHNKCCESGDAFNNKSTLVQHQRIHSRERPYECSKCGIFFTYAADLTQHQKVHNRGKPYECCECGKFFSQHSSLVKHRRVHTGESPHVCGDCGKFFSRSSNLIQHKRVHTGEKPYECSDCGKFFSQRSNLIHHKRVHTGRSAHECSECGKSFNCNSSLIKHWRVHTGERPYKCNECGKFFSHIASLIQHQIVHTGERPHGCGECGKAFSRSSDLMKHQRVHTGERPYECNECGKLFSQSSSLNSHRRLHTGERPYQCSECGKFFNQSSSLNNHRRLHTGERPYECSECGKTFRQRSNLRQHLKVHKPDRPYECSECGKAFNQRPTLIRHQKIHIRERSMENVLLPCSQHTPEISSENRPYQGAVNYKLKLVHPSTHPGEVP

Variant | effect of a mutation on the interaction
S59G | with no effect

Variants of: B1
Settings: with aen_human AEN

Variant | effect of a mutation on the interaction
S59G | with no effect
R605Q | with no effect
T164M | with no effect
R223C | with no effect

Variants of: B1
Settings: with zn792_human ZNF792, Q3KQV3
Remark: another data set of the same source

Variant | effect of a mutation on the interaction
R605Q | with no effect
T164M | with no effect
R223C | with no effect

Reference: IntAct's records for PubMed 31515488
